Positions count from the first letter of the chain named. Values belong to the binder of their own block, whether it stands above or below them.
Target: T1, human IL-1β (human, UniProt P01584 117-269)
T1 construct: antigen of the ABT2 dAbs; also called hIL-1β; IL-1 beta
Test: IC50 column of Table 63; receptor binding assay presumed

IC50: 20 nM
B1: ABT2-65-18 (other)
VH: EVQLLESGGGLVQPGGSLRLSCAASGFTFGDYQMGWVRQAPGKGLEWVSSISAMGNRTYYADSVKGRFTISRDDSKNTLYLQMNSLRAEDTAVYYCAENLVQWRIGAWMFDYWGQGTLVTVSS
notes: VH dAb

IC50: 5 nM
B2: ABT2-65-143 (other)
VH: B1 VH with G30E, Q102R, W103L, R104Q, I105R, G106D, A107R
notes: VH dAb

IC50: 4 nM
B3: ABT2-65-114 (other)
VH: B1 VH with G30R, D31E, Q33M, E98Q, Q102R, W103L, R104G, I105R, G106S, A107R
notes: VH dAb

IC50: 100 nM
B4: ABT2-65-37 (other)
VH: B1 VH with G30A, E98Q, Q102R, W103T, R104Q, I105S, G106K, A107M
notes: VH dAb

IC50: 4.3 nM
B5: ABT2-65-126 (other)
VH: EVQLLESGGGLVQPGGSLRISCVTSGFTFEDYQMGWVRQAPGKGLEWVSSISAMGNRTYYADSVKGRFTISRDDSKNTLNLQMNSLRAEDTAVYYCAQNLVRLGRSRWVFDYWGQGTLVTVSS
notes: VH dAb

IC50: 10 nM
B6: ABT2-65-117 (other)
VH: B5 VH with Q13R, I20L, T24A, V48I, N80Y, V109M
notes: VH dAb

IC50: 20 nM
B7: ABT2-65-33 (other)
VH: B1 VH with G30E, E98Q, Q102R, W103Y, R104M, I105K, G106S, A107Q
notes: VH dAb

IC50: 4.3 nM
B8: ABT2-65-130 (other)
VH: B5 VH with I20L, T24A, G55V, N80Y, V109M
notes: VH dAb

IC50: 4 nM
B9: ABT2-65-139 (other)
VH: B1 VH with G30E, E98Q, Q102R, W103V, I105V, G106R, A107R
notes: VH dAb

IC50: 300 nM
B10: ABT2-65-90 (other)
VH: B5 VH with I20L, T24A, L45Q, N80Y, V109M, Q115H
notes: VH dAb

IC50: 5 nM
B11: ABT2-65-138 (other)
VH: B1 VH with G30E, Q102R, W103V, R104T, I105A, G106R, A107K
notes: VH dAb

IC50: 4 nM
B12: ABT2-65-125 (other)
VH: B5 VH with I20L, T24A, V48I, N80Y, V109M
notes: VH dAb

IC50: 4 nM
B13: ABT2-65-32 (other)
VH: B1 VH with G30E, E98Q, Q102A, W103V, R104S, I105R, A107R
notes: VH dAb

IC50: 10 nM
B14: ABT2-65-170 (other)
VH: B1 VH with G30E, Q102R, W103V, R104L, I105L, G106N, A107K
notes: VH dAb

IC50: 5 nM
B15: ABT2-65-132 (other)
VH: B1 VH with G30E, Q102R, W103L, R104A, I105S, G106R, A107R
notes: VH dAb

IC50: 20 nM
B16: ABT2-65-26 (other)
VH: B1 VH with G30E, E98Q, Q102L, W103V, I105S, A107Y
notes: VH dAb

IC50: 30 nM
B17: ABT2-65-78 (other)
VH: B5 VH with I20L, T24A, N80Y, R105T, V109M, T117A
notes: VH dAb

IC50: 4 nM
B18: ABT2-65-119 (other)
VH: B5 VH with I20L, V23A, T24A, E30I, D31A, Q33P, N80Y, V109M
notes: VH dAb

IC50: 3.4 nM
B19: ABT2-65-129 (other)
VH: B5 VH with I20L, T24A, S50T, I51V, V64M, N80Y, V109M
notes: VH dAb

IC50: 8 nM
B20: ABT2-65-76 (other)
VH: B5 VH with I20L, T24A, S49T, N80Y, V109M
notes: VH dAb

IC50: 30 nM
B21: ABT2-65-75 (other)
VH: B5 VH with P14H, I20L, T24A, N80Y, R105K, V109M
notes: VH dAb

IC50: 3.8 nM
B22: ABT2-65-124 (other)
VH: B5 VH with I20L, T24A, M54V, N80Y, T91I, V109M
notes: VH dAb

IC50: 5 nM
B23: ABT2-65-158 (other)
VH: B1 VH with G30E, E98Q, Q102K, R104K, I105R, G106D, A107F
notes: VH dAb

IC50: 6 nM
B24: ABT2-65-151 (other)
VH: B1 VH with G30E, Q102R, I105K, G106H
notes: VH dAb

IC50: 60 nM
B25: ABT2-65-84 (other)
VH: B5 VH with I20L, T24A, T28S, G42R, V48I, N80Y, V109M
notes: VH dAb

IC50: 5 nM
B26: ABT2-65-152 (other)
VH: B1 VH with G30E, Q102R, R104K, I105S, G106S
notes: VH dAb

IC50: 13.2 nM
B27: ABT2-65-131 (other)
VH: B5 VH with G15R, I20L, T24A, A53T, N80Y, Y95H, V109M
notes: VH dAb

IC50: 20 nM
B28: ABT2-65-49 (other)
VH: B1 VH with E1G, G30E, E98Q, Q102R, W103T, R104Q, I105S, G106K, A107M
notes: VH dAb

IC50: 30 nM
B29: ABT2-65-168 (other)
VH: B1 VH with G30E, E98Q, Q102R, R104K, I105L, G106E, A107S
notes: VH dAb

IC50: 30 nM
B30: ABT2-65-167 (other)
VH: B1 VH with G30E, E98Q, Q102R, R104K, I105K, G106N, A107E
notes: VH dAb

IC50: 4 nM
B31: ABT2-65-148 (other)
VH: B5 VH with I20L, V23A, T24A, N80Y, R105S, S106K, V109M
notes: VH dAb

IC50: 5 nM
B32: ABT2-65-145 (other)
VH: B1 VH with G30E, Q102R, W103I, R104Q, I105K, G106V, A107K
notes: VH dAb

IC50: 50 nM
B33: ABT2-65-87 (other)
VH: B5 VH with I20L, T24A, G44D, N80Y, V109M
notes: VH dAb

IC50: 300 nM
B34: ABT2-65-83 (other)
VH: B5 VH with I20L, T24A, N80Y, L86Q, V109M
notes: VH dAb

IC50: 800 nM
B35: ABT2-65-23 (other)
VH: EVQLLESGGGLVQPGESLRLSCAASGFTFKVYPMGWVRQAPGKGLEWVSSISAMGNRTYYADSVKGRFTISRDDSKNTLYLQMNSLRAEDTAVYYCAKNLVRTQSKMWMFDYWGQGTLVTVSS
notes: VH dAb

IC50: 5 nM
B36: ABT2-65-137 (other)
VH: B1 VH with G30E, Q102R, W103T, R104A, I105K, G106R, A107R
notes: VH dAb

IC50: 5 nM
B37: ABT2-65-159 (other)
VH: B1 VH with G30E, Q102R, W103V, R104S, I105K, G106A, A107R
notes: VH dAb

IC50: 30 nM
B38: ABT2-65-46 (other)
VH: B35 VH with E16G, K30E, V31D, P33Q, N99W, V101T, M107L, W108G, M109Y
notes: VH dAb

IC50: 5 nM
B39: ABT2-65-156 (other)
VH: B5 VH with I20L, V23A, T24A, N80Y, L103I, S106N, R107K, V109M
notes: VH dAb

IC50: 5 nM
B40: ABT2-65-141 (other)
VH: B1 VH with G30E, Q102R, W103I, R104K, I105Q, G106T, A107K
notes: VH dAb

IC50: 4 nM
B41: ABT2-65-115 (other)
VH: B5 VH with I20L, V23A, T24A, E30I, N80Y, V109M
notes: VH dAb

IC50: 4.6 nM
B42: ABT2-65-118 (other)
VH: B5 VH with I20L, V23A, T24A, E30A, D31T, Q33T, N80Y, V109M
notes: VH dAb

IC50: 9 nM
B43: ABT2-65-169 (other)
VH: B1 VH with G30E, Q102N, I105R, A107S
notes: VH dAb

IC50: 3.9 nM
B44: ABT2-65-121 (other)
VH: B5 VH with I20L, T24A, S52A, M54H, N80Y, V109M
notes: VH dAb

IC50: 6 nM
B45: ABT2-65-144 (other)
VH: B1 VH with G30E, Q102R, W103I, R104S, I105K, G106K, A107Q
notes: VH dAb

IC50: 4 nM
B46: ABT2-65-149 (other)
VH: B1 VH with G30E, Q102R, W103V, R104D, I105R, G106R, A107R
notes: VH dAb

IC50: 6 nM
B47: ABT2-65-146 (other)
VH: B1 VH with G30E, Q102R, W103T, R104M, I105K, G106R, A107K
notes: VH dAb

IC50: 20 nM
B48: ABT2-65-30 (other)
VH: B5 VH with Q3R, I20L, V23A, T24A, N80Y, G104N, S106R, R107D, V109M
notes: VH dAb

IC50: 100 nM
B49: ABT2-65-22 (other)
VH: B35 VH with E16G, K30L, V31G, R72P
notes: VH dAb

IC50: 5 nM
B50: ABT2-65-155 (other)
VH: B1 VH with G30E, E98Q, Q102L, W103V, R104Q, I105R, G106R, A107K
notes: VH dAb

IC50: 3 nM
B51: ABT2-65-31 (other)
VH: B1 VH with G30E, E98Q, Q102K, W103I, R104M, I105R, G106L, A107K
notes: VH dAb

IC50: 5 nM
B52: ABT2-65-135 (other)
VH: B1 VH with G30E, Q102R, W103I, R104K, I105K, G106M, A107K
notes: VH dAb

IC50: 5.5 nM
B53: ABT2-65-127 (other)
VH: B5 VH with I20L, T24A, S49T, N80Y, V109M
notes: VH dAb

IC50: 4 nM
B54: ABT2-65-25 (other)
VH: B1 VH with G30E, E98Q, Q102R, W103Y, I105S, G106Y, A107Y, S122L
notes: VH dAb

IC50: 4.2 nM
B55: ABT2-65-120 (other)
VH: B5 VH with I20L, T24A, N56M, N80Y, V109M
notes: VH dAb

IC50: 5 nM
B56: ABT2-65-28 (other)
VH: B1 VH with G30E, E98Q, W103F, I105R, G106S, A107Q
notes: VH dAb

IC50: 30 nM
B57: ABT2-65-38 (other)
VH: B35 VH with E16G, K30E, V31D, P33Q, S71Y, K98Q
notes: VH dAb

IC50: 30 nM
B58: ABT2-65-133 (other)
VH: B1 VH with G30E, Q102H, R104K, I105R, A107G
notes: VH dAb

IC50: 300 nM
B59: ABT2-65-39 (other)
VH: B35 VH with E16G, K30E, V31D, P33Q, K98G
notes: VH dAb

IC50: 3.5 nM
B60: ABT2-65-27 (other)
VH: B1 VH with G30E, Q102R, W103L, R104W, I105K, A107R
notes: VH dAb

IC50: 50 nM
B61: ABT2-65-24 (other)
VH: B35 VH with E16G, K30A, V31A, P33Q, K98Q
notes: VH dAb

IC50: 20 nM
B62: ABT2-65-29 (other)
VH: B1 VH with G30E, E98Q, Q102L, W103V, I105V, A107W
notes: VH dAb

— patent US20090291081A1 (AbbVie / Abbott, published 2009)
